Experimental data from IntAct's records for PubMed 19298369.

B1: Sigma factor AlgU negative regulatory protein (Pseudomonas aeruginosa (strain ATCC 15692 / PAO1 / 1C / PRS 101 / LMG 12228)), P38107 (parent)
chain: MSREALQETLSAVMDNEADELELRRVLAACGEDAELRSTWSRYQLARSVMHREPTLPKLDIAAAVSAALADEAAPPKAEKGPWRMVGRLAVAASVTLAVLAGVRLYNQNDALPQMAQQGTTPQIALPQVKGPAVLAGYSEEQGAPQVITNSSSSDTRWHEQRLPIYLRQHVQQSAVSGTESALPYARAASLENR
partner: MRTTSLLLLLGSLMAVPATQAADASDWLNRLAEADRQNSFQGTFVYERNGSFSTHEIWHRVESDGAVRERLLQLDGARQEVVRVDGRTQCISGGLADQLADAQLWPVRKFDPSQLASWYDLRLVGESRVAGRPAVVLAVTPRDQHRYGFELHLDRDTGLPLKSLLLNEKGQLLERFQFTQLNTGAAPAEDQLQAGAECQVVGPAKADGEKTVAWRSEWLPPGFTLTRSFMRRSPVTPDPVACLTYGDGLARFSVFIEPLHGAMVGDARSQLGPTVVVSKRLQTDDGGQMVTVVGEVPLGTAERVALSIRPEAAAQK

Variants of: B1
Settings: with mucb_pseae mucB
For MSREALQETLSAVMDNEADELELRRVLAACGEDAELRSTWSRYQLARSVMHREPTLPKLDIAAAVSAALADEAAPPKAEKGPWRMVGRLAVAASVTLAVLAGVRLYNQNDALPQMAQQGTTPQIALPQVKGPAVLAGYSEEQGAPQVITNSSSCDTRWHEQRLPIYLRQHVQQSAVSGTESALPYARAASLENR [S154C], the “effect of a mutation on the interaction” value was “decreasing interaction strength”.
